Reference: the MegaScale stability set (Tsuboyama et al. 2023)

B1: EEHEE_rd4_0003 (parent)
chain: KKVTINGVEIKFNNPEEAVKFALELAKRLNLRIEFHGDQIKIE

Variants of: B1
Test: folding stability dG (cDNA display proteolysis); higher = more stable
Details: PBS, room temperature

Row | Variant | folding stability dG [kcal/mol]
1 | KKVTINGVEIKFANPEEAVKFALELAKRLNLRIEFHGDQIKIE [N13A] | 2.8
2 | KKVTINGVEIKFCNPEEAVKFALELAKRLNLRIEFHGDQIKIE [N13C] | 3.31
3 | KKVTINGVEIKFDNPEEAVKFALELAKRLNLRIEFHGDQIKIE [N13D] | 2.73
4 | KKVTINGVEIKFENPEEAVKFALELAKRLNLRIEFHGDQIKIE [N13E] | 2.59
5 | KKVTINGVEIKFFNPEEAVKFALELAKRLNLRIEFHGDQIKIE [N13F] | 2.54
6 | KKVTINGVEIKFGNPEEAVKFALELAKRLNLRIEFHGDQIKIE [N13G] | 2.44
7 | KKVTINGVEIKFHNPEEAVKFALELAKRLNLRIEFHGDQIKIE [N13H] | 2.45
8 | KKVTINGVEIKFINPEEAVKFALELAKRLNLRIEFHGDQIKIE [N13I] | 2.59
9 | KKVTINGVEIKFKNPEEAVKFALELAKRLNLRIEFHGDQIKIE [N13K] | 2.8
10 | KKVTINGVEIKFLNPEEAVKFALELAKRLNLRIEFHGDQIKIE [N13L] | 2.72
11 | KKVTINGVEIKFMNPEEAVKFALELAKRLNLRIEFHGDQIKIE [N13M] | 2.66
12 | KKVTINGVEIKFPNPEEAVKFALELAKRLNLRIEFHGDQIKIE [N13P] | 2.53
13 | KKVTINGVEIKFQNPEEAVKFALELAKRLNLRIEFHGDQIKIE [N13Q] | 2.54
14 | KKVTINGVEIKFRNPEEAVKFALELAKRLNLRIEFHGDQIKIE [N13R] | 2.84
15 | KKVTINGVEIKFSNPEEAVKFALELAKRLNLRIEFHGDQIKIE [N13S] | 2.69
16 | KKVTINGVEIKFTNPEEAVKFALELAKRLNLRIEFHGDQIKIE [N13T] | 2.61
17 | KKVTINGVEIKFVNPEEAVKFALELAKRLNLRIEFHGDQIKIE [N13V] | 2.46
18 | KKVTINGVEIKFWNPEEAVKFALELAKRLNLRIEFHGDQIKIE [N13W] | 2.6
19 | KKVTINGVEIKFYNPEEAVKFALELAKRLNLRIEFHGDQIKIE [N13Y] | 2.39
20 | KKVTINGVEIKFNAPEEAVKFALELAKRLNLRIEFHGDQIKIE [N14A] | 2.25

Row | Variant | folding stability dG [kcal/mol]
21 | KKVTINGVEIKFNCPEEAVKFALELAKRLNLRIEFHGDQIKIE [N14C] | 2.98
22 | KKVTINGVEIKFNDPEEAVKFALELAKRLNLRIEFHGDQIKIE [N14D] | 2.56
23 | KKVTINGVEIKFNEPEEAVKFALELAKRLNLRIEFHGDQIKIE [N14E] | 1.86
24 | KKVTINGVEIKFNFPEEAVKFALELAKRLNLRIEFHGDQIKIE [N14F] | 2.64
25 | KKVTINGVEIKFNGPEEAVKFALELAKRLNLRIEFHGDQIKIE [N14G] | 2.22
26 | KKVTINGVEIKFNHPEEAVKFALELAKRLNLRIEFHGDQIKIE [N14H] | 2.37
27 | KKVTINGVEIKFNIPEEAVKFALELAKRLNLRIEFHGDQIKIE [N14I] | 2.36
28 | KKVTINGVEIKFNKPEEAVKFALELAKRLNLRIEFHGDQIKIE [N14K] | 2.35
29 | KKVTINGVEIKFNLPEEAVKFALELAKRLNLRIEFHGDQIKIE [N14L] | 2.56
30 | KKVTINGVEIKFNMPEEAVKFALELAKRLNLRIEFHGDQIKIE [N14M] | 2.38
31 | KKVTINGVEIKFNPPEEAVKFALELAKRLNLRIEFHGDQIKIE [N14P] | 2.4
32 | KKVTINGVEIKFNQPEEAVKFALELAKRLNLRIEFHGDQIKIE [N14Q] | 2.06
33 | KKVTINGVEIKFNRPEEAVKFALELAKRLNLRIEFHGDQIKIE [N14R] | 2.44
34 | KKVTINGVEIKFNSPEEAVKFALELAKRLNLRIEFHGDQIKIE [N14S] | 2.93
35 | KKVTINGVEIKFNTPEEAVKFALELAKRLNLRIEFHGDQIKIE [N14T] | 3.02
36 | KKVTINGVEIKFNVPEEAVKFALELAKRLNLRIEFHGDQIKIE [N14V] | 2.36
37 | KKVTINGVEIKFNWPEEAVKFALELAKRLNLRIEFHGDQIKIE [N14W] | 2.39
38 | KKVTINGVEIKFNYPEEAVKFALELAKRLNLRIEFHGDQIKIE [N14Y] | 2.41
39 | KKVTINGVEIKFNNAEEAVKFALELAKRLNLRIEFHGDQIKIE [P15A] | 2.78
40 | KKVTINGVEIKFNNCEEAVKFALELAKRLNLRIEFHGDQIKIE [P15C] | 3.65

Row | Variant | folding stability dG [kcal/mol]
41 | KKVTINGVEIKFNNDEEAVKFALELAKRLNLRIEFHGDQIKIE [P15D] | 2.46
42 | KKVTINGVEIKFNNEEEAVKFALELAKRLNLRIEFHGDQIKIE [P15E] | 2.52
43 | KKVTINGVEIKFNNFEEAVKFALELAKRLNLRIEFHGDQIKIE [P15F] | 3.12
44 | KKVTINGVEIKFNNGEEAVKFALELAKRLNLRIEFHGDQIKIE [P15G] | 2.53
45 | KKVTINGVEIKFNNHEEAVKFALELAKRLNLRIEFHGDQIKIE [P15H] | 2.84
46 | KKVTINGVEIKFNNIEEAVKFALELAKRLNLRIEFHGDQIKIE [P15I] | 2.85
47 | KKVTINGVEIKFNNKEEAVKFALELAKRLNLRIEFHGDQIKIE [P15K] | 2.47
48 | KKVTINGVEIKFNNLEEAVKFALELAKRLNLRIEFHGDQIKIE [P15L] | 2.9
49 | KKVTINGVEIKFNNMEEAVKFALELAKRLNLRIEFHGDQIKIE [P15M] | 2.97
50 | KKVTINGVEIKFNNNEEAVKFALELAKRLNLRIEFHGDQIKIE [P15N] | 2.45
51 | KKVTINGVEIKFNNQEEAVKFALELAKRLNLRIEFHGDQIKIE [P15Q] | 2.48
52 | KKVTINGVEIKFNNREEAVKFALELAKRLNLRIEFHGDQIKIE [P15R] | 2.79
53 | KKVTINGVEIKFNNSEEAVKFALELAKRLNLRIEFHGDQIKIE [P15S] | 2.77
54 | KKVTINGVEIKFNNTEEAVKFALELAKRLNLRIEFHGDQIKIE [P15T] | 2.74
55 | KKVTINGVEIKFNNVEEAVKFALELAKRLNLRIEFHGDQIKIE [P15V] | 2.67
56 | KKVTINGVEIKFNNWEEAVKFALELAKRLNLRIEFHGDQIKIE [P15W] | 3.67
57 | KKVTINGVEIKFNNYEEAVKFALELAKRLNLRIEFHGDQIKIE [P15Y] | 3.14
58 | KKVTINGVEIKFNNPAEAVKFALELAKRLNLRIEFHGDQIKIE [E16A] | 2.61
59 | KKVTINGVEIKFNNPCEAVKFALELAKRLNLRIEFHGDQIKIE [E16C] | 3.56
